Assay results as given in the RNAGym collection of RNA variant scans (doi:10.7554/elife.80360).

B1: HDV Ribozyme (parent)
chain: GGCCGGCAUGGUCCCAGCCUCCUCGCUGGCGCCGGCUGGGCAACAUUCCGAGGGGACCGUCCCCUCGGUAAUGGCGAAUGGGACCCA

Variants of: B1
Test: self-cleavage, relative activity (ratio to wild type); higher = more cleavage; co-transcriptional

Variant	self-cleavage
C19A C85G	0.149
U20A A71G	0.0665
C18G G73C	0.104
U20A U23C	0
C18U U65C	0.831
U20C C24G	0.115
C18G C49G	0.0723
C18G C49A	0.0791
U20C A42C	0.158
C18G C26U	0.388
U20C A70U	0.0594
U20C A70G	0.107
C19G C57G	0.0739
C18G U79A	0.0615
C19A C75U	0.058
C19A C75G	0.0528
C19A G39C	0
C19A G39A	0.114
C19A G74A	0.0755
C19U U79G	0.0997
C19U U79A	0.0396
C19A G68A	0.0631
C19G G74A	0.161
U20A G80A	0.0712

Variant	self-cleavage
C18G C66G	0.0665
C19U G40U	0.0839
C18G G29C	0.939
C18U G54U	0.661
C18U U27G	0.391
C19G C84A	0.0898
C19G U23C	0
C18G G52U	0.203
C19U G25C	0.0489
C19U G25U	0.188
C18U C58U	0.554
C18G C75G	0.229
C19A C22A	0.112
U20A C24A	0.0415
U20A C24U	0.162
U20A U60A	0.142
C18U U69G	0.453
C19G G38A	0.0511
U20C C63A	0.0898
U20C C36G	0.111
C19G G31U	0.0723
C19U U20C	0.145
C18G G39C	0.0755
C18A U46A	0.0923

Variant	self-cleavage
C19G C85A	0.148
C19U G31A	0.102
C18G C33G	0.119
C19A G28U	0.79
C19U C24A	0.0791
C18G U47A	0
U20C C58A	0.0875
C18U C57G	0.831
C19A G82A	0.113
C19U G82A	0.0511
C19U G82C	0.0817
U20A G38C	0.119
C19A G25U	0.0791
C18A U69C	0.138
U20C C21G	0
C18G C57A	0.0536
C19G U69G	0.102
C18G C21A	0
C19U A42G	0
C19U A42C	0.104
C19A C21U	0.134
C18U U20A	0.0339
C18U U20G	0.277
C19G A43G	0.155

Variant	self-cleavage
U20A C62A	0.119
C18G G35C	0.104
C18G G50C	0
C18U U79G	0.119
C19G U27G	0
C19G U27A	0.0615
C18G G31U	0.0396
U20A G29C	0.128
U20A U27C	0
U20C C64U	0.244
U20A C32G	0.111
U20C C22A	0.119
U20C C22G	0.0554
U20A G39A	0.133
C18G C63A	0.145
C18A U72A	0.0504
U20A G40U	0.0627
C18U G34A	0.117
C18U G34C	0.155
C18U G34U	0.0455
C19U C63A	0.199
U20A G52C	0.0449
C18U G29C	0.196
C19A U23G	0.0923

Variant	self-cleavage
C19A U23C	0.0519
C19G C63U	0.0978
C18U G38A	0.176
U20C A51G	0
C19U C22A	0.0886
C19U C22U	0.058
C18U G73U	0.111
C19U A70G	0.141
C19U A70C	0.0906
C18G C22U	0.0504
C19G C36A	0.0277
C18U C85G	0.975
C19U C85A	0.0378
C18G C41U	0.161
C19U C21A	0.0573
C19A A56U	0.122
C18U G31A	0.0702
C19U C32G	0.0482
U20A G55A	0.0959
C18G C61U	0.0519
C19U G38A	0.0875
C19G A71C	0.0665
C19A U27C	0.0536
C19A U27A	0.312

Variant	self-cleavage
C18G A71C	0.172
C18G A71U	0.0723
C19U G50U	0.159
C19G G54C	0.0489
C19U C33A	0.0665
C19G G80U	0.0902
C18U C36A	0.0739
C18U C36U	0.198
C18G U37G	0.0692
C18G U37C	0.256
C18G C48U	0
C18U C19G	0.0297
C18U C19U	0
C19G G73A	0.021
C19U A51U	0.0923
U20A G82A	0.0739
C19U C36U	0.0314
C19G C21U	0.122
C19G C66U	0.0639
C19G G39C	0.0978
U20C C26G	0.0923
C18G C86A	0
C19U G29A	0.102
C19G A83G	0.0678

Variant	self-cleavage
C19A G52C	0.125
C19G C75U	0.161
C19A G76U	0.262
C19A G76C	0.102
C18G U20A	0.161
C19U G53U	0.215
U20A G73C	0.0615
U20A G73U	0.0354
C18U C21A	0.115
C18U C21U	0.0911
C18U C44U	0.258
U20A C48U	0
C18U U46G	0.277
C19A G81A	0.0449
C18G C58G	0
C18G C58U	0.0978
C19A U79A	0.0773
C18U G82A	0.194
U20C A45U	0.166
C18U C62U	0.831
C19A G59A	0.125
C19U C30U	0.0608
C19U G35U	0.0519
